This assay has as its target T1, human neonatal Fc-receptor (FcRn) (human, UniProt P55899 24-297; P61769 21-119).
T1 construct: also called human FcRn; huFcRn
The assay is described as follows: SPR (BIAcore T100), FcRn immobilised on a CM5 chip, 200 nM antibody, PBS 0.05% Tween20 pH 6.0.

T1 sequence (P55899 24-297 limits assumed, chain 1 of 2): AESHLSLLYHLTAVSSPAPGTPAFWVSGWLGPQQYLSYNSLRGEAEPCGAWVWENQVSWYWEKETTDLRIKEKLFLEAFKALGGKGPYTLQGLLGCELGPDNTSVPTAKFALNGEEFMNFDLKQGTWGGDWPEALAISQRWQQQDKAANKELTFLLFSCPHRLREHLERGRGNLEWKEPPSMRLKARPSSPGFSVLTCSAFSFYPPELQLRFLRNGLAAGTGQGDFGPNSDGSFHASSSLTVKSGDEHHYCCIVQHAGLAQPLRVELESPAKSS
T1 sequence (P61769 21-119 limits assumed, chain 2 of 2): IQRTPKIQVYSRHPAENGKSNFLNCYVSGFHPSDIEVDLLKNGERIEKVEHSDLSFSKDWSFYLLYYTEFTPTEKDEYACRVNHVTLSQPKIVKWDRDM
Description: The binding properties of wild-type antibody and the mutants to FcRn were analyzed by surface plasmon resonance (SPR) technology using a BIAcore T100 instrument (BIAcore AB, Uppsala, Sweden). […] In the current assay, the FcRn receptor was immobilized onto a BIAcore CM5-biosensor chip (GE Healthcare Bioscience, Uppsala, Sweden) via amine coupling to a level of 400 Response units (RU). The assay was carried out at room temperature with PBS, 0.05% Tween20 pH 6.0 (GE Healthcare Bioscience) as running and dilution buffer. 200 nM of samples were injected at a flow rate of 50 μL/min at room temperature. Association time was 180 sec., dissociation phase took 360 sec. Regeneration of the chip surface was reached by a short injection of HBS-P, pH 8.0. Evaluation of SPR-data was performed by comparison of the biological response signal height at 180 sec. after injection and at 300 sec. after injection. The corresponding parameters are the RU max level (180 sec. after injection) and late stability (300 sec. after end of injection).

B1: YTE-mutant of anti-IGF-1R antibody (antibody, human IgG1, kappa)
light: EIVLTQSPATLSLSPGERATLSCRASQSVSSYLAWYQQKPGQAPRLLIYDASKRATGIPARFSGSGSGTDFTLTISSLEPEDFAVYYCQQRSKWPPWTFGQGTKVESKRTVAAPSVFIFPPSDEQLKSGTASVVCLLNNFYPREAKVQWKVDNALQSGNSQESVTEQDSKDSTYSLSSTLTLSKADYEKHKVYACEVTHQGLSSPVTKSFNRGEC
heavy: QVELVESGGGVVQPGRSQRLSCAASGFTFSSYGMHWVRQAPGKGLEWVAIIWFDGSSTYYADSVRGRFTISRDNSKNTLYLQMNSLRAEDTAVYFCARELGRRYFDLWGRGTLVSVSSASTKGPSVFPLAPSSKSTSGGTAALGCLVKDYFPEPVTVSWNSGALTSGVHTFPAVLQSSGLYSLSSVVTVPSSSLGTQTYICNVNHKPSNTKVDKKVEPKSCDKTHTCPPCPAPELLGGPSVFLFPPKPKDTLYITREPEVTCVVVDVSHEDPEVKFNWYVDGVEVHNAKTKPREEQYNSTYRVVSVLTVLHQDWLNGKEYKCKVSNKALPAPIEKTISKAKGQPREPQVYTLPPSRDELTKNQVSLTCLVKGFYPSDIAVEWESNGQPENNYKTTPPVLDSDGSFFLYSKLTVDKSRWQQGNVFSCSVMHEALHNHYTQKSLSLSPG
notes: also called <IGF-1R> IgG1 with M252Y, S254T, T256E; anti-IGF-1R IgG1 with YTE mutation
For B1, the binding result is “binds”.
